The source of these data is the supplement of paper PMC10567573.

B1: CCNC (parent)
chain: QSSHYLQWILDKQDLLKERQKDLK
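Also: lentivirally expressed fusions sorted by FACS into six bins by GFP to DsRed ratio, PSI derived from sequencing read proportions per bin multiplied by bin number.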

The data set covers variants of B1. Nature of the data set: protein stability index of a GFP-peptide fusion (GPS, HEK-293T) (PSI 1-6); higher = more stable. The note with it: c terminus: a fixed tail appended.
Turning to QSSHYMQWILDKQDLLKERQKDLK [L6M], the protein stability index came to 3.21. The same measure for QSSHYTQWILDKQDLLKERQKDLK [L6T]: 3.2; for QSSHYAQWILDKQDLLKERQKDLK [L6A]: 3.83; for QSSHYWQWILDKQDLLKERQKDLK [L6W]: 2.96. In the case of QSSHYQQWILDKQDLLKERQKDLK [L6Q], the protein stability index was found to be 3.72. The same measure for QSSHYVQWILDKQDLLKERQKDLK [L6V]: 3.7; for QSSHYPQWILDKQDLLKERQKDLK [L6P]: 4.53. Regarding QSSHYEQWILDKQDLLKERQKDLK [L6E], the protein stability index amounted to 5.2. Under QSSHYDQWILDKQDLLKERQKDLK [L6D] stands 4.14; under QSSHYNQWILDKQDLLKERQKDLK [L6N], 4.03; under QSSHYFQWILDKQDLLKERQKDLK [L6F], 3.52. QSSHYHQWILDKQDLLKERQKDLK [L6H]: the protein stability index stood at 3.69.

Consider QSSHYGQWILDKQDLLKERQKDLK [L6G], for which the protein stability index came out at 4.11. The same measure for QSSHYSQWILDKQDLLKERQKDLK [L6S]: 3.99; for QSSHYYQWILDKQDLLKERQKDLK [L6Y]: 2.77; for QSSHYIQWILDKQDLLKERQKDLK [L6I]: 2.83.

Regarding QSSHYRQWILDKQDLLKERQKDLK [L6R], the protein stability index turned out to be 3.54. Turning to QSSHYCQWILDKQDLLKERQKDLK [L6C], the protein stability index came to 3.71. The same measure for QSSHYKQWILDKQDLLKERQKDLK [L6K]: 3.92; for QSSHYLQHILDKQDLLKERQKDLK [W8H]: 4.03. The same measure for QSSHYLQSILDKQDLLKERQKDLK [W8S]: 4.09; for QSSHYLQLILDKQDLLKERQKDLK [W8L]: 3.41. Take QSSHYLQQILDKQDLLKERQKDLK [W8Q]: the protein stability index worked out at 3.96.

Take QSSHYLQAILDKQDLLKERQKDLK [W8A]: the protein stability index is 4.42. Consider QSSHYLQEILDKQDLLKERQKDLK [W8E], for which the protein stability index amounted to 4.35. Under QSSHYLQMILDKQDLLKERQKDLK [W8M] stands 4.16; under QSSHYLQGILDKQDLLKERQKDLK [W8G], 3.94; under QSSHYLQIILDKQDLLKERQKDLK [W8I], 3.16. As to QSSHYLQYILDKQDLLKERQKDLK [W8Y], the protein stability index came to 4.5. Regarding QSSHYLQTILDKQDLLKERQKDLK [W8T], the protein stability index is 4.39.

On to QSSHYLQDILDKQDLLKERQKDLK [W8D], for which the protein stability index is 4.55. The same measure for QSSHYLQPILDKQDLLKERQKDLK [W8P]: 4.29; for QSSHYLQKILDKQDLLKERQKDLK [W8K]: 3.87. Under QSSHYLQCILDKQDLLKERQKDLK [W8C] stands 3.89; under QSSHYLQRILDKQDLLKERQKDLK [W8R], 4.18; under QSSHYLQNILDKQDLLKERQKDLK [W8N], 4.46.

Regarding QSSHYLQVILDKQDLLKERQKDLK [W8V], the protein stability index came to 3.52. The same measure for QSSHYLQFILDKQDLLKERQKDLK [W8F]: 3.77. Take QSSHNLQWILDKQDLLKERQKDLK [Y5N]: the protein stability index came out at 3.8. Turning to QSSHVLQWILDKQDLLKERQKDLK [Y5V], the protein stability index was 3.28. With QSSHFLQWILDKQDLLKERQKDLK [Y5F], the protein stability index was determined as 2.77. In the case of QSSHQLQWILDKQDLLKERQKDLK [Y5Q], the protein stability index was determined as 4.29. As to QSSHWLQWILDKQDLLKERQKDLK [Y5W], the protein stability index turned out to be 2.53. Under QSSHELQWILDKQDLLKERQKDLK [Y5E] stands 3.21.

Regarding QSSHCLQWILDKQDLLKERQKDLK [Y5C], the protein stability index worked out at 3.61. The same measure for QSSHHLQWILDKQDLLKERQKDLK [Y5H]: 3.93. Under QSSHLLQWILDKQDLLKERQKDLK [Y5L] stands 2.02; under QSSHGLQWILDKQDLLKERQKDLK [Y5G], 3.74.

As to QSSHTLQWILDKQDLLKERQKDLK [Y5T], the protein stability index was 3.7.

For the variant QSSHSLQWILDKQDLLKERQKDLK [Y5S], the protein stability index is 4.56. The same measure for QSSHRLQWILDKQDLLKERQKDLK [Y5R]: 3.38. Consider QSSHDLQWILDKQDLLKERQKDLK [Y5D], for which the protein stability index is 4.45. Under QSSHKLQWILDKQDLLKERQKDLK [Y5K] stands 3.43. The same measure for QSSHILQWILDKQDLLKERQKDLK [Y5I]: 2.81; for QSSHPLQWILDKQDLLKERQKDLK [Y5P]: 4.47. Under QSSHMLQWILDKQDLLKERQKDLK [Y5M] stands 2.83. As for QSSHYLQWILNKQDLLKERQKDLK [D11N], the protein stability index was 2.83. Under QSSHYLQWILWKQDLLKERQKDLK [D11W] stands 2.38; under QSSHYLQWILTKQDLLKERQKDLK [D11T], 2.58. On to QSSHYLQWILVKQDLLKERQKDLK [D11V], for which the protein stability index came to 2.86. Consider QSSHYLQWILFKQDLLKERQKDLK [D11F], for which the protein stability index came to 2. Under QSSHYLQWILKKQDLLKERQKDLK [D11K] stands 3.09; under QSSHYLQWILLKQDLLKERQKDLK [D11L], 2.72; under QSSHYLQWILMKQDLLKERQKDLK [D11M], 2.36. The same measure for QSSHYLQWILPKQDLLKERQKDLK [D11P]: 3.13; for QSSHYLQWILRKQDLLKERQKDLK [D11R]: 2.1; for QSSHYLQWILCKQDLLKERQKDLK [D11C]: 2.96. The same measure for QSSHYLQWILIKQDLLKERQKDLK [D11I]: 2.26; for QSSHYLQWILQKQDLLKERQKDLK [D11Q]: 3.39; for QSSHYLQWILAKQDLLKERQKDLK [D11A]: 3.01.

Regarding QSSHYLQWILGKQDLLKERQKDLK [D11G], the protein stability index is 2.75.

With QSSHYLQWILYKQDLLKERQKDLK [D11Y], the protein stability index stood at 3.17. The same measure for QSSHYLQWILHKQDLLKERQKDLK [D11H]: 2.86; for QSSHYLQWILSKQDLLKERQKDLK [D11S]: 3. With QSSHYLQWILEKQDLLKERQKDLK [D11E], the protein stability index amounted to 3.4. On to QSSHYLQWILDKIDLLKERQKDLK [Q13I], for which the protein stability index amounted to 2.59. Regarding QSSHYLQWILDKWDLLKERQKDLK [Q13W], the protein stability index is 2.36. For the variant QSSHYLQWILDKRDLLKERQKDLK [Q13R], the protein stability index turned out to be 2.6. Turning to QSSHYLQWILDKEDLLKERQKDLK [Q13E], the protein stability index came to 2.71.

As for QSSHYLQWILDKYDLLKERQKDLK [Q13Y], the protein stability index was found to be 2.42.

For the variant QSSHYLQWILDKSDLLKERQKDLK [Q13S], the protein stability index came to 2.91.

Turning to QSSHYLQWILDKPDLLKERQKDLK [Q13P], the protein stability index is 3.36. Under QSSHYLQWILDKFDLLKERQKDLK [Q13F] stands 2.34; under QSSHYLQWILDKDDLLKERQKDLK [Q13D], 3.82. QSSHYLQWILDKKDLLKERQKDLK [Q13K]: the protein stability index is 3.49.

As to QSSHYLQWILDKADLLKERQKDLK [Q13A], the protein stability index worked out at 2.74. Under QSSHYLQWILDKMDLLKERQKDLK [Q13M] stands 2; under QSSHYLQWILDKVDLLKERQKDLK [Q13V], 2.76. For the variant QSSHYLQWILDKHDLLKERQKDLK [Q13H], the protein stability index worked out at 2.5. Under QSSHYLQWILDKNDLLKERQKDLK [Q13N] stands 3.74; under QSSHYLQWILDKCDLLKERQKDLK [Q13C], 3.1; under QSSHYLQWILDKTDLLKERQKDLK [Q13T], 2.7. In the case of QSSHYLQWILDKLDLLKERQKDLK [Q13L], the protein stability index turned out to be 1.85.

For the variant QSSHYLQWILDKGDLLKERQKDLK [Q13G], the protein stability index amounted to 2.94.
